In US20030119725A1 (ACTIVE MOTIF, published 2003):
*1 amine or outer side, *2 acyl side, *3 side chain or, on linkers, in order; H or OH if unused. Cysteamide = C(CS[*:3])N[*:1]

Experiments:
[1] = target: the molecule itself; experiment: intrinsic tryptophan fluorescence against peptide concentration
[2] = target: T1, Pep-A, 32-mer peptide derived from HIV-1 reverse transcriptase; experiment: intrinsic Trp fluorescence of Pep-2 on binding
T1 construct: also called peptide A

[3] = target: T2, Pep-B, 51-mer peptide derived from human Cdc25C dual-specificity phosphatase; experiment: intrinsic Trp fluorescence of Pep-2 on binding
T2 construct: also called peptide B

[4] = target: T3, 119 kDa b-galactosidase (β-gal) (UniProt P00722 2-1024 = β-galactosidase); experiment: intrinsic Trp fluorescence of Pep-2 on binding
T3 construct: also called beta-gal; β-galactosidase

[5] = target: T1, Pep-A, 32-mer peptide derived from …; experiment: intrinsic Trp fluorescence titration of 1 µM Pep-2
[6] = target: T2, Pep-B, 51-mer peptide derived from …; experiment: intrinsic Trp fluorescence titration of 1 µM Pep-2
[7] = target: T3, 119 kDa b-galactosidase (β-gal); experiment: intrinsic Trp fluorescence titration of 1 µM Pep-2

T3 sequence (P00722 2-1024 limits assumed): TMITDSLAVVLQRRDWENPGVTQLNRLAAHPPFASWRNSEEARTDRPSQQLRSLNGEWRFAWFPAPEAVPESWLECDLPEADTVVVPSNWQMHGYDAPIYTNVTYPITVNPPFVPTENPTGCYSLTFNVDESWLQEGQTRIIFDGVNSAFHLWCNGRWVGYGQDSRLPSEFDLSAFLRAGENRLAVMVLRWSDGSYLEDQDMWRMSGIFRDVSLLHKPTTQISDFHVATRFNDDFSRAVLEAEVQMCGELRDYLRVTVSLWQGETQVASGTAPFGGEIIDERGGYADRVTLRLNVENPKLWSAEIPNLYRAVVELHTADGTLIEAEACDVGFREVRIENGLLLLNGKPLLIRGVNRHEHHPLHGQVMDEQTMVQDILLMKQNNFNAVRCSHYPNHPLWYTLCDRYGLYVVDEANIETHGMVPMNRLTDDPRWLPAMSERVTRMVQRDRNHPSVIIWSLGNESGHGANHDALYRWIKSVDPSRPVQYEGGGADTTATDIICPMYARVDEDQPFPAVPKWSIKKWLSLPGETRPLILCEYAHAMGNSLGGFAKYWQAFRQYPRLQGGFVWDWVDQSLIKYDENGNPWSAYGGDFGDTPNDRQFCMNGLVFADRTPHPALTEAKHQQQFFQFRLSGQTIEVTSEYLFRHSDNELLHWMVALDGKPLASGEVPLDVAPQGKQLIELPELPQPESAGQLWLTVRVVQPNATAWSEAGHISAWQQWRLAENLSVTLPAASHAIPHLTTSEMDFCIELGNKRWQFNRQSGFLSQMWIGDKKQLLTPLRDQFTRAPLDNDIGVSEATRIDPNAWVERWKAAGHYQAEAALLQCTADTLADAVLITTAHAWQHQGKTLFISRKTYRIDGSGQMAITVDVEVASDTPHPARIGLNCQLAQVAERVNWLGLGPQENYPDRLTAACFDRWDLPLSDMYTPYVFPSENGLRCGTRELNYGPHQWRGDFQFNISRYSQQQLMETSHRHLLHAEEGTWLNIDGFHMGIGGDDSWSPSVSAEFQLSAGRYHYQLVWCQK

GALFLGFLGAAGSTMGAWSQPKSKRKV [MPG peptide vector]
binding result [1]: no binding

B1: Pep-2 (KETWWETWWTEWSQPKKKRKV-cya) (peptide)
peptide: Ac-KETWWETWWTEWSQPKKKRKV-Cysteamide
notes: Synthetic 21-residue peptide: Trp-rich hydrophobic domain, Ser-Gln-Pro spacer, and a Lys-rich domain derived from the SV40 large T antigen NLS; also called Pep-2-cya; peptide vector
blue shift of the fluorescence emission maximum [2]: 10 nm | blue shift of the fluorescence emission maximum [3]: 10 nm | blue shift of the fluorescence emission maximum [4]: 10 nm | Kd [5]: ~120 nM | concentration of partner at saturation [5]: ~200 nM | saturating quenching of intrinsic tryptophan fluorescence [5]: 36% | Kd [6]: ~120 nM | concentration of partner at saturation [6]: ~200 nM | saturating quenching of intrinsic tryptophan fluorescence [6]: 36% | Kd [7]: ~120 nM | concentration of partner at saturation [7]: ~50 nM | saturating quenching of intrinsic tryptophan fluorescence [7]: 65% | binding result [1]: no binding (tested: up to a millimolar concentration)
